Test results from patent US20260055369A1, “METHOD FOR GENERATING CELLS OF THE T CELL LINEAGE WITH ENGINEERING BROADLY REACTIVE HUMAN NOTCH LIGAND” (H. Lee Moffitt Cancer Center and Research Institute, Inc., priority 2022, published 2026).
Substitutions are numbered along the chain they refer to.

B1: Delta^MAX: engineered human DLL4 consensus variant with 10 mutations combining DLL4.v1 and DLL4.v2 mutations; sequence matches SEQ ID NO: 4/10 (protein)
chain: SSVFQLQLQEFINERGVLASGRPCEPGCRTFFRVCLKHFQAVVSPGPCTFGTVSTPVLGTNSFAVRDDSSGGGRNPLQLPLNFTWPGTFSLIIEAWHAPGDDLRPEALPPDALISKFAIQGSLAVGQNWLLDEQTSTLTRLRYSYRVICSDNYYGDNCSRLCKKRNDYFGHYVCQPDGNPSCLPGWTGEYCQQPICLSGCHEQNGYCSKPAECLCRPGWQGRLCNECIPHPGCRHGTCSTPWQCLCDEGWGGLYCDQDLNYCTHHSPCKNGATCRNSGPRSYTCTCRPGYTGVDCELELSECDSNPCRNGGSCKDQEDGYHCLCPPGYYGLHCEHSTLSCADSPCFNGGSCRERNQGANYACECPPNFTGSNCE
B2: WT DLL4: human wild-type Delta-like 4 (N-EGF5, residues 27-400), SEQ ID NO: 1 (protein)
chain: B1 chain with S2G, L81F, F117I, Y168H, P180L, P231N, L245T, Y254F, R275S, P279Q

Legend:
Notch1 [1] = assay: Notch activation in co-culture format with HEK293T (U2OS luciferase reporter); assay type: cell-based, human; settings: HEK293T expressing full-length ligand, 1:1 ratio
Chain of Notch1 (P46531 19-1664 limits assumed): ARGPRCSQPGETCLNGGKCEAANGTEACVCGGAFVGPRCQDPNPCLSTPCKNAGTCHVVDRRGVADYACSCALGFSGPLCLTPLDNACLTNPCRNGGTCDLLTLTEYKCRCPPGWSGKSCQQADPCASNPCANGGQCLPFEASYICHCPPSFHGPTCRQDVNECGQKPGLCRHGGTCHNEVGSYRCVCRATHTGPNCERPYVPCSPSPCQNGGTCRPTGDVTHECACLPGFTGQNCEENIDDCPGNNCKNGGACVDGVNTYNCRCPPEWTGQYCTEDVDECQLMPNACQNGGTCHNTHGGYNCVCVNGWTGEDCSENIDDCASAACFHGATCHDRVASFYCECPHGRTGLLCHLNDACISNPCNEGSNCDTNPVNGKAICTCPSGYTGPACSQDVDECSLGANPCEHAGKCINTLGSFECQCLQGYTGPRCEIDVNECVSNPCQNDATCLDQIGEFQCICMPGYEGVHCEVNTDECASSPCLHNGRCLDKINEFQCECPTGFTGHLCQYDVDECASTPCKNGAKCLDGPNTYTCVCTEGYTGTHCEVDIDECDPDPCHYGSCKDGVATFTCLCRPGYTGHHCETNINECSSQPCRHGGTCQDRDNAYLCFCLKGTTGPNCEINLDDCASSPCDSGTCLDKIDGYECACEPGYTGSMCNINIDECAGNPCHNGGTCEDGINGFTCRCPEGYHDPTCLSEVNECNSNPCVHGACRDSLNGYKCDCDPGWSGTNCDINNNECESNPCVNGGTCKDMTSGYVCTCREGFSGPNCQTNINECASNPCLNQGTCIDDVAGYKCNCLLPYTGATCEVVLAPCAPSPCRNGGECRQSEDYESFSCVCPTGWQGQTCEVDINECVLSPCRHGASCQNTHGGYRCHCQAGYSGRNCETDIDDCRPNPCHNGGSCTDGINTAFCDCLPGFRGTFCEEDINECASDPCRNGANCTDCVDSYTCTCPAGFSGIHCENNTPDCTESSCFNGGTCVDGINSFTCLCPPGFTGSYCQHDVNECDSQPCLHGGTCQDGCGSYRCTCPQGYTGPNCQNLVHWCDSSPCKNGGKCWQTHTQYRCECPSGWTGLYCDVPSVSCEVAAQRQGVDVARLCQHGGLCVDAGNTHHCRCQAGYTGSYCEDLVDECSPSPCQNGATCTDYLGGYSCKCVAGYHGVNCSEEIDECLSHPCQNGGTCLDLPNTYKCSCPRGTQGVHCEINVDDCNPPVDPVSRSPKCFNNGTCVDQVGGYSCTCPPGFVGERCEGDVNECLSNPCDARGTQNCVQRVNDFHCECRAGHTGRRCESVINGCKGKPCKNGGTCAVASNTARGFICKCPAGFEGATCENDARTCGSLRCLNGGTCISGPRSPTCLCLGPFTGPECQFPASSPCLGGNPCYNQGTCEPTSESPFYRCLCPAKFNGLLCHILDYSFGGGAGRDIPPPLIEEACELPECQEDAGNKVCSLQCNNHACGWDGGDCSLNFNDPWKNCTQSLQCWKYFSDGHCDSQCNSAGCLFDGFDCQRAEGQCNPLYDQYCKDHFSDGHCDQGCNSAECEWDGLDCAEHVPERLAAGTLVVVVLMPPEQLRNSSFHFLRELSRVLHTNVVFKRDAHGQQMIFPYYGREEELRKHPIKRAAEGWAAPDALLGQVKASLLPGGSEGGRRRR
Chain of Notch1 (P46531 1665-1756 limits assumed): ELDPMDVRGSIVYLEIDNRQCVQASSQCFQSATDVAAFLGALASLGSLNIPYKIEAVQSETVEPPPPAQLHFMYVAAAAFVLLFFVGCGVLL
Description: (§1) On day one, U2OS reporter cells (signal receiver cells) were detached with trypsin-EDTA, washed with DPBS, and 5×10^5 cells were added to 6-well plates (Falcon) for transfection with luciferase reporter vectors. On day two, U2OS cells were transfected as described above. On day three, signal receiver cells were detached with trypsin-EDTA, and 100 μL of DMEM media containing 20,000 cells were added to tissue culture 96-well plates (Coastar). In parallel, HEK293T-expressing WT DLL4 or Delta^MAX were detached with trypsin-EDTA, counted manually, and dilutions prepared such that 100 μL of DMEM containing 20,000 signal sender cells were added over signal receiver cells (cell ratio 1:1). Doxycycline (Sigma) at 2 μg/mL was used to induce Notch-Gal4 expression. On day four, luciferase firefly and Renilla signals were determined with Dual-Glo luciferase assay system (Promega) using a GloMax luminometer (Promega). A luminescence ratio firefly:Renilla was determined for every well and normalized to the signal of a well containing U2OS reporter cells and HEK293T non-expressing DLL4 ligands. Notch activation is represented as the mean fold-change over the control±s.d. of three independent biological replicates.

Notch2 = assay: as above; assay type: cell-based, human; settings: HEK293T expressing full-length ligand, 1:1 ratio; P=0.037
Chain of Notch2 (Q04721 221-530 limits assumed): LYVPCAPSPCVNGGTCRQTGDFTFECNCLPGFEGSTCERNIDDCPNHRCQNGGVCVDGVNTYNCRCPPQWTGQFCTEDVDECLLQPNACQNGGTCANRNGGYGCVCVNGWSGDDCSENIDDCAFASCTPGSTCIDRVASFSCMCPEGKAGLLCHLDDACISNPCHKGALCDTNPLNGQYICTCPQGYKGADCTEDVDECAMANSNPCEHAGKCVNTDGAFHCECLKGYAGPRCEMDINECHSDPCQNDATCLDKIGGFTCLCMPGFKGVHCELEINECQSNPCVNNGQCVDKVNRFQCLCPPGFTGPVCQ
Description: as §1

Notch3 [2] = assay: as above; assay type: cell-based, human; settings: HEK293T expressing full-length ligand, 1:1 ratio
Chain of Notch3 (Q9UM47 197-505 limits assumed): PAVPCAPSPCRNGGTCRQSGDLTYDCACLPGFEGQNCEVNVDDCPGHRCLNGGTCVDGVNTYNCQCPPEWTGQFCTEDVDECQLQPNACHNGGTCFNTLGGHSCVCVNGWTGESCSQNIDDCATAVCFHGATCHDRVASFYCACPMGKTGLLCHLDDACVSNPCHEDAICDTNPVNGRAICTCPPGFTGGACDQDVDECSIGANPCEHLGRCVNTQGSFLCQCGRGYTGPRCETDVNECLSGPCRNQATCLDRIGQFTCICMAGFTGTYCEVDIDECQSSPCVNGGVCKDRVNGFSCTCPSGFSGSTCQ
Description: as §1

Notch1 [3] = assay: Notch activation assay with ligands non-specifically adsorbed to plates (CHO-K1 N1-Gal4 fluorescent reporter); assay type: cell-based; settings: for EC50 for Notch1 activation: non-specifically adsorbed to tissue culture plates, 24 hours
Description: On day one, 2-fold serial dilutions of non-biotinylated DLL4 recombinant proteins (N-EGF5) were prepared in 100 μL of DPBS and used to coat 96-well plates (Coastar) for 1 hour at 37° C. WT DLL4 started at 66.56 ng/mm^2 and Delta^MAX at 0.33 ng/mm^2. Then, the wells were washed three times with 200 μL of DPBS to remove unbound proteins. Next, CHO-K1 N1-Gal4 cells in culture were detached with trypsin-EDTA 0.25% (Gibco) and manually counted. Appropriate dilutions were prepared in α-MEM media to ensure 30,000 CHO-K1 N1-Gal4 cells per well in 200 μL. Ligand-coated plates and reporter cell lines were incubated for 24 hours at 37° C. and 5% CO2. On day two, CHO-K1 N1-Gal4 cells were washed with 200 μL DPBS, detached with 30 μL of trypsin-EDTA 0.25%, and quenched with 200 μL of α-MEM media. Finally, cells were resuspended and H2B-mCitrine signal was measured by flow cytometry (BD Accuri C6 plus). CHO-K1 N1-Gal4 and ligand-lacking wells were used as a negative control. The measurements represent the mean fluorescent intensity as percentage of Notch activation±s.d. of three biological replicates. Notch activation was reference-subtracted from a well coated with 0.5% BSA containing CHO-K1 N1-Gal4 cells. Gating strategies for this experiment are detailed in FIG. 13A.

Notch3 [4] = assay: Notch inhibition assay in co-culture format (U2OS Notch3 reporter with HEK293T expressing DLL4, DLL1, JAG1 or JAG2); assay type: cell-based, human; settings: 3 μM soluble protein; signaling by DLL1, DLL4, JAG1 and JAG2 expressing HEK293T cells
Description: For inhibition of Notch ligand-expressing cell lines, on day one, U2OS Notch3 reporter cells (signal receivers) were detached with trypsin-EDTA, washed with DPBS, and added to 6-well plates. On day two, U2OS cells were transfected as described above. On day three, signal receiver cells were detached with trypsin-EDTA, and dilutions of 400,000 cells/mL were prepared in DMEM. On the one hand, soluble DLL4 variants were prepared at 6,000 nM in DPBS, combined in 1:1 dilution with signal receiver cells, and incubated for 15 min at RT. On the other hand, HEK293T-expressing WT DLL4, DLL1, JAG1, JAG2 were detached with trypsin-EDTA, washed with DPBS and 200,000 cells/mL stocks prepared in DMEM. One hundred microliters of both signal senders and pre-blocked signal receivers were combined in cell ratio 1:1 and incubated for 24 hours at 37° C., and 5% CO2. On day four, luciferase firefly and Renilla signals were determined with Dual-Glo luciferase assay system (Promega) using a GloMax luminometer (Promega). Doxycycline at 2 μg/mL was kept for all the conditions. A luminescence ratio firefly:Renilla was determined for every well. Notch activation of each Notch3:ligand pair was normalized to the signal of Notch3 reporters in the presence of HEK293T lacking ligands. Each Notch signaling pair was set at 100% activation and soluble DLL4 treatments were relative to its corresponding pair. […]

[5] = Thermal denaturation by differential scanning fluorimetry (DSF); assay type: physicochemical; settings: for melting temperature (Tm): N-EGF5, 5 μM in HBS
Description: WT DLL4 and Delta^MAX (N-EGF5) were diluted at 5 μM in 20 μL of HBS buffer, and then combined with 10 μM (5×) SYPRO Orange (ThermoFisher Scientific) prepared in 100% DMSO (final DMSO concentration was 0.1%). This mix was equilibrated at room temperature for 30 min. Proteins were analyzed in a 96-well microtiter plate using a StepOnePlus RT-PCR system (Applied Biosystems) applying a continuous heating gradient from 25 to 99° C. with a step of 1% of temperature/min. Data was normalized and represented as the mean of three independent technical replicates. Similar Tm values were obtained for the replica measurements.

Notch1 [6] = assay: Notch activation with ligand-oriented coupling on streptavidin plates (CHO-K1 N1-Gal4 reporter); assay type: cell-based; settings: for EC50: C-terminally biotinylated, streptavidin-coated plates (oriented coupling), 24 hours; for maximum level of Notch1 activation, oriented coupling versus non-specific adsorption: FIG. 3B
Description: For CHO-K1 N1-Gal4 reporters, on day one, tissue culture 96-well plates (Coastar) were pre-treated with 100 μL of streptavidin at 10 μg/mL (VWR) for 1 hour at 37° C., washed three times with 200 μL DPBS (Corning), and blocked with 100 μL BSA 2% (VWR) for 1 hour at 37° C. Excess BSA was removed by washing three times with 200 μL DPBS (Corning), and 100 μL of DPBS containing biotinylated DLL4 proteins were coupled to streptavidin for 1 hour at 37° C. (2-fold serial dilutions starting at 50 nM). Non-coupled DLL4 proteins were removed by washing three times with 200 μL DPBS. Next, Notch reporter cells in culture were detached with trypsin-EDTA 0.25% (Gibco), and 30,000 cells in α-MEM media (200 μL) were added into individual wells. Assay plates were incubated for 24 hours at 37° C., and 5% CO2. On day two, CHO-K1 N1-Gal4 cells were washed with 200 μL DPBS, detached with 30 μL of trypsin-EDTA 0.25%, and 200 μL of α-MEM media added. Cells were resuspended and Notch activation was measured as a function of fluorescence by flow cytometry (BD Accuri C6 plus). CHO-K1 N1-Gal4 cells and lacking-ligand wells were used as a negative control. The measurements represent the mean fluorescent intensity as percentage of Notch activation±s.d. of three biological replicates. Notch activation was reference-subtracted from a well coated with a non-related control protein (PA domain of RNF128).

Molecule | Emax of signaling vs WT DLL4 (Notch1 [1]) [fold] | Notch2 activation compared to unstimulated cells (Notch2) | Emax of signaling vs WT DLL4 (Notch3 [2]) [fold] | Emax greater than that induced by WT DLL4 (Notch1 [3]; non-specific adsorption) [%] | EC50 for Notch1 activation (Notch1 [3]) [ng/mm^2] | improvement in Notch activation efficiency vs WT DLL4 (Notch1 [3]; ratio of EC50, non-specific adsorption) [fold] | reduction in reporter signal (Notch3 [4]) | increase in Tm relative to WT DLL4 (ΔTm) [5] [°C] | melting temperature (Tm) [5] [°C] | EC50 (Notch1 [6]) [nM] | maximum level of Notch1 activation, oriented coupling versus non-specific adsorption (Notch1 [6])
B1 | ~2 | significant level of Notch2 activation | ~2 | 20 | 0.009 | 250 | 70-85% | 11 | 58 | 1.7 | higher maximum level
B2 | – | – | – | – | 2.3 | – | 10-40% | – | 47 | 16 | higher maximum level
